The record followed here is paper PMC12117405 (Nucleic Acids Research, 2025).

Targets include Lsm6/5/7 (human, UniProt P62312;Q9Y4Y9;Q9UK45); SmF/E/G (human, UniProt P62306;P62304;P62308); SmD1/D2 (human, UniProt P62314;P62316).
Test in all cases: pull-down

Chain of Lsm6/5/7 (Q9Y4Y9 whole entry, chain 2 of 2): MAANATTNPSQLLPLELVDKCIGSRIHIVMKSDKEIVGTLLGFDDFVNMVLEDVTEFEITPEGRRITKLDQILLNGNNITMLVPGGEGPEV
Chain of Lsm6/5/7 (Q9UK45 whole entry, chain 3 of 2): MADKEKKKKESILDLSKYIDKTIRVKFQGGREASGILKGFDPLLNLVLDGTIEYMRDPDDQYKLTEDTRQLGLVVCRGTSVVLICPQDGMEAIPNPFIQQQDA

B1: Lsm2/3 (complex)
chain 1: MLFYSFFKSLVGKDVVVELKNDLSICGTLHSVDQYLNIKLTDISVTDPEKYPHMLSVKNCFIRGSVVRYVQLPADEVDTQLLQDAARKEALQQKQ
chain 2: not shown
For the molecule B1, the binding result in the assay with Lsm6/5/7 was “binds”.

B2: His-tagged Gemin2/MBP-SMN(26-62) (complex)
chain 1: FDPSVPPRTPQEYLRRVQIEAAQCPDVVVAQIDPKKLKRKQSVNISLSGCQPAPEGYSPTLQWQQQQVAQFSTVRQNVNKHRSHWKSQQLDSNVTMPKSEDEEGWKKFCLGEKLCADGAVGPATNESPGIDYVQIGFPPLLSIVSRMNQATVTSVLEYLSNWFGERDFTPELGRWLYALLACLEKPLLPEAHSLIRQLARRCSEVRLLVDSKDDERVPALNLLICLVSRYFDQRDLADEPS
chain 2: GQSDDSDIWDDTALIKAYDKAVASFKHALKNGDICET
As for B2, the binding result with SmF/E/G and in the assay with SmD1/D2 was “binds” each time.
